The results in this text go back to PMC2650008.

This data set deals with T1, PpPutA45 (Pseudomonas putida, UniProt Q9R9T7 1-45).
T1 chain: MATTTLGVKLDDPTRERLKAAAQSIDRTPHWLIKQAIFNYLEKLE
Description: EMSA.

B1: O2-12 (dsDNA)
DNA 1: GCGGTTGCACCT
DNA 2: AGGTGCAACCGC
Consider B1, for which the binding result was “no binding”.
